Patent publication US10704030B2, “P450-BM3 variants with improved activity” (Codexis, Inc., priority 2015, dated 2020)

B1: SEQ ID NO: 4: P450-BM3 parental backbone from the commercially available MCYP panel (MCYP-0343; Codexis) (protein)
chain: MTIKEMPQPKTFGELKNLPLLNTDKPVQALMKIADELGEIFKFEAPGCVTRYLSSQRLIKEACDESRFDKNLSQALKFARDFAGDGLVTSWTHEINWKKAHNILLPSFSQQAMKGYHAMMVDIAVQLVQKWERLNADEHIEVSEDMTRLTLDTIGLCGFNYRFNSFYRDQPHPFIISMVRALDEVMNKLQRANPDDPAYDENKRQCQEDIKVMNDLVDKIIADRKARGEQSDDLLTQMLNGKDPETGEPLDDGNISYQIITFLIAGHETTSGLLSFALYFLVKNPHVLQKVAEEAARVLVDPVPSYKQVKQLKYVGMVLNEALRLWPTAPAFSLYAKEDTVLGGEYPLEKGDEVMVLIPQLHRDKTIWGDDVEEFRPERFENPSAIPQHAFKPFGNGQRACIGQQFALHEATLVLGMMLKHFDFEDHTNYELDIKETLTLKPEGFVVKAKSKKIPLGGIPSPSTEQSAKKVRKKAENAHNTPLLVLYGSNMGTAEGTARDLADIAMSKGFAPQVATLDSHAGNLPREGAVLIVTASYNGHPPDNAKQFVDWLDQASADEVKGVRYSVFGCGDKNWATTYQKVPAFIDETLAAKGAENIADRGEADASDDFEGTYEEWREHMWSDVAAYFNLDIENSEDNKSTLSLQFVDSAADMPLAKMHGAFSTNVVASKELQQPGSARSTRHLEIELPKEASYQEGDHLGVIPRNYEGIVNRVTARFGLDASQQIRLEAEEEKLAHLPLAKTVSVEELLQYVELQDPVTRTQLRAMAAKTVCPPHKVELEALLEKQAYKEQVLAKRLTMLELLEKYPACEMKFSEFIALLPSIRPRYYSISSSPRVDEKQASITVSVVSGEAWSGYGEYKGIASNYLAELQEGDTITCFISTPQSEFTLPKDPETPLIMVGPGTGVAPFRGFVQARKQLKEQGQSLGEAHLYFGCRSPHEDYLYQEELENAQSEGIITLHTAFSRMPNQPKTYVQHVMEQDGKKLIELLDQGAHFYICGDGSQMAPAVEATLMKSYADVHQVSEADARLWLQQLEEKGRYAKDVWAG
modifications: P450_BM3
B2: SEQ ID NO: 2: P450-BM3 parental backbone from the commercially available MCYP panel; a chimera, P450 domain 86% identical to Bacillus subtilis P450 (protein)
chain: MLMKQASAIPQPKTYGPLKNLPHLEKEQLSQSLWRIADELGPIFRFDFPGVSSVFVSGHNLVAEVCDEERFDKSIEGALEKVRAFSGDGLATSWTHEPNWRKAHNILMPTFSQRAMKDYHEKMVDIATQLIQKWSRLNPNEEIDVADDMTRLTLDTIGLCGFNYRFNSFYRDQPHPFITSMVRALDEAMNKLQRANPDDPAYDENKRQFQEDIKVMNDLVDSIIAERRANGDQDEKDLLARMLNVEDPETGEKLDDENIRFQIITFLIAGHETTSGLLSFAIYCLLTHPEKLKKAQEEADRVLTDDTPEYKQIQQLKYIRMVLNETLRLYPTAPAFSLYAKEDTVLGGEYPISKGQPVTVLIPKLHRDQNAWGPDAEDFRPERFEDPSSIPHHAYKPFGNGQRACIGMQFALQEATMVLGLVLKHFELINHTGYELKIKEALTIKPDDFKITVKPRKTAAINVQRKEQAEQSAKKVRKKAENAHNTPLLVLYGSNMGTAEGTARDLADIAMSKGFAPQVATLDSHAGNLPREGAVLIVTASYNGHPPDNAKQFVDWLDQASADEVKGVRYSVFGCGDKNWATTYQKVPAFIDETLAAKGAENIADRGEADASDDFEGTYEEWREHMWSDVAAYFNLDIENSEDNKSTLSLQFVDSAADMPLAKMHGAFSTNVVASKELQQPGSARSTRHLEIELPKEASYQEGDHLGVIPRNYEGIVNRVTARFGLDASQQIRLEAEEEKLAHLPLAKTVSVEELLQYVELQDPVTRTQLRAMAAKTVCPPHKVELEALLEKQAYKEQVLAKRLTMLELLEKYPACEMKFSEFIALLPSIRPRYYSISSSPRVDEKQASITVSVVSGEAWSGYGEYKGIASNYLAELQEGDTITCFISTPQSEFTLPKDPETPLIMVGPGTGVAPFRGFVQARKQLKEQGQSLGEAHLYFGCRSPHEDYLYQEELENAQSEGIITLHTAFSRMPNQPKTYVQHVMEQDGKKLIELLDQGAHFYICGDGSQMAPAVEATLMKSYADVHQVSEADARLWLQQLEEKGRYAKDVWAG
modifications: P450_BM3
notes: P450-BM3 parental backbone from the commercially available MCYP panel; a chimera, P450 domain 86% identical to Bacillus subtilis P450

Columns and labels:
Format in all cases: biochemical
[1] = Validation of generalist properties: oxidation of diclofenac by lyophilized P450-BM3 variant, UPLC-MS; conditions: for % Conv. / TON: [Diclofenac] = 1 mM; for TON: TON = [substrate]*% conversion/[P450]
Experimental: (§1) For the production of lyophilized protein powders, LB agar plates supplemented with chloramphenicol (30 μg/mL) were streaked with E. coli containing a desired B. megaterium P450-BM3 variant in an IPTG-inducible vector. The plates were grown at 37° C. for 16 hrs before single clones were selected to inoculate a 15 mL Falcon™ tube (Fisher) containing TB media (3 mL) supplemented with chloramphenicol (30 μg/mL). The tube was shaken at 200 rpm, 30° C., and 85% humidity for 20-24 h to grow the cultures to saturation. Then, 2.5 mL of the overnight culture was used to inoculate sterile 1 L flasks containing TB medium (250 mL) supplemented with chloramphenicol (30 μg/mL), trace element solution (as described above), and 0.05 g/L ammonium iron (III) citrate. After being shaken at 250 rpm, 30° C., and 85% humidity to an OD600 of 0.8-1.2, P450 expression was induced by addition of IPTG (500 uM) and the heme precursor 5-aminolevulinic acid (5-ALA) to a final concentration of 500 uM. The cultures were grown for additional 20-24 hours and centrifuged in pre-weighed 250 mL centrifuge bottles for 20 minutes at 4000 rpm, 4° C. The supernatants were discarded, and the centrifuge bottles containing cell pellets were weighed. The pellets were resuspended in 50 mM potassium phosphate buffer with 2 mM DTT, pH 8.0 (5 mL of buffer per gram of cell pellet). The cells were lysed using a microfluidizer homogenizer, and the suspensions of cells and lysate were collected in sterile 50 mL centrifuge tubes. The samples were centrifuged for 30 minutes at 10,000 rpm, 4° C. The clarified lysate was collected into a plastic petri plate and frozen at −80° C. prior to lyophilization. The enzyme-containing lysates were lyophilized using standard methods known in the art.
(§2) Enzyme stocks (˜12 μM) were prepared by dissolving ˜20 mg of each enzyme in 100 mM potassium phosphate buffer, pH 8.0 (1 mL). The concentration of each enzyme stock solution was determined by the UV-visible absorption spectroscopy (after centrifugation to remove particulates) and diluted to standardize at 12 μM heme protein. Substrate solutions were prepared by dissolving each substrate in DMSO to reach a final concentration of 20 mM or 40 mM. Reaction mix (235 μL) followed by enzyme solution (50 μL) was added to the plates. The substrate stock solution was added to the enzyme solutions (15 μL at the two different concentrations). Each reaction contained 100 mM potassium phosphate, 1.0 mM NADP+, 25 mM glucose, 0.5 mg/mL glucose dehydrogenase, 5% DMSO and substrate at 1 or 2 mM. Loratadine, imatinib, and gefitinib (See, FIG. 1) were selected as substrates in addition to diclofenac to validate improved BM3 variants. The reactions were shaken at 450 rpm at 30° C. over 24 hours. All reactions were diluted with acetonitrile to a final concentration of 0.5 mM substrate. The plates were then centrifuged at 3,000 g for 1 hour at 20° C. The supernatant was diluted 1:1 with acetonitrile, filtered using a 0.4 micron filter, and analyzed by UPLC-MS.
(§3) For UPLC-MS analysis, the quenched and filtered reactions were transferred to 96-well HTP plates for analysis by UPLC on a Waters Acquity H-class system equipped with an autosampler. 1 uL of quenched sample was injected onto an Acquity UPLC HSS T3 column, 100 Å, (1.8 um; 2.1×100 mm). The column was eluted at a constant flow rate of 0.6 mL/min; conditions with solvent A (0.05% trifluoroacetic acid v/v, in H2O) and solvent B (0.05% trifluoroacetic acid v/v, in acetonitrile) used to elute the products of the reaction were: 0-2 min, A/B 95:5; 2-2.9 min, A/B 5:95; 2.9-3 min, A/B 95:5; 3-3.5 min, A/B 95:5. Column eluent was monitored by PDA (200-600 nm) prior to MS analysis in positive ESI mode (desolvation temperature 350° C., 3.25 kV spray voltage, cone voltage 25V). The column eluent was diverted to waste for the first 0.7 minutes of the run. For the remainder of the LC run, both MS (m/z 95-600 scan range) and MS/MS were collected. […]

[2] = Validation of generalist properties: oxidation of imatinib by lyophilized P450-BM3 variant, UPLC-MS; conditions: for % Conv. / TON: [Imatinib] = 1 mM; for TON: TON = [substrate]*% conversion/[P450]
Experimental: as §1, §2, §3

[3] = Validation of generalist properties: oxidation of loratadine by lyophilized P450-BM3 variant, UPLC-MS; conditions: for % Conv. / TON: [Loratadine] = 1 mM; for TON: TON = [substrate]*% conversion/[P450]
Experimental: as §1, §2, §3

[4] = Validation of generalist properties: oxidation of gefitinib by lyophilized P450-BM3 variant, UPLC-MS; conditions: for % Conv. / TON: [Gefitinib] = 1 mM; for TON: TON = [substrate]*% conversion/[P450]
Experimental: as §1, §2, §3

Row | Molecule | % Conv. [1] | TON [1] | performance (% conversion at 1 mM substrate loading), in words ([1]; diclofenac, 1 mM substrate loading) | % Conv. [2] | TON [2] | performance (% conversion at 1 mM substrate loading), in words ([2]; imatinib, 1 mM substrate loading) | % Conv. [3] | TON [3] | performance (% conversion at 1 mM substrate loading), in words ([3]; loratadine, 1 mM substrate loading) | % Conv. [4] | TON [4] | performance (% conversion at 1 mM substrate loading), in words ([4]; gefitinib, 1 mM substrate loading)
1 | B1 | +++ (10.01-15.00) | ‡‡‡ (5001-10000) | moderate activity | ++ (5.01-10.00) | ‡‡ (1001-5000) | low activity | ++++ (15.01-20.00) | ‡‡‡‡ (10000-50000) | moderate activity | + (0-5.00) | ‡ (0-1000) | low activity
2 | B2 | + (0-5.00) | ‡ (0-1000) | – | ++ (5.01-10.00) | ‡‡ (1001-5000) | – | + (0-5.00) | ‡ (0-1000) | – | + (0-5.00) | ‡ (0-1000) | –
